Reference: patent publication US20100303821A1 (GlaxoSmithKline, published 2010)

What was measured:
[1] = target: T1, human IL-13 (human, UniProt P35225 35-146); experiment: cell-based or functional assay
[2] = target: T1, human IL-13; experiment: cell-based or functional assay; remark: listed apart in the source
[3] = target: T2, human IL-4 (human, UniProt P05112 25-153); experiment: SPR Biacore T100; mAbdAb captured on Protein A (CM5), human IL4 analyte
T2 construct: also called recombinant E. coli-expressed human IL-4
T2 sequence (looked up): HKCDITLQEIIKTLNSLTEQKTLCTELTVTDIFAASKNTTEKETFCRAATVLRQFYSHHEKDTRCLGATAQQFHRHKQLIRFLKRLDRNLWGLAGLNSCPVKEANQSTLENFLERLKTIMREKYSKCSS
Procedure: (§1) All binding curves were double referenced with a OnM injection (i.e. buffer alone).
(§2) Regeneration of the Protein A surface was with 50 mM NaOH. The assay was run at 25° C. using HBS-EP as running buffer. The data was fitted to 1:1 model inherent to the Biacore T100 analysis software.

[4] = target: T2, human IL-4; experiment: SPR Biacore T100; captured on Protein A (CM5), human IL4 analyte; footnote: on- and off-rate not measurable
[5] = target: T3, cyno IL-13 (cynomolgus, UniProt Q0PW92 21-132); experiment: SPR Biacore T100; captured on Protein A (CM5), cyno IL13 analyte; 'Impossible off-rates', beyond sensitivity
T3 construct: also called cynomolgus IL-13
T3 sequence (Q0PW92 entry or part of it): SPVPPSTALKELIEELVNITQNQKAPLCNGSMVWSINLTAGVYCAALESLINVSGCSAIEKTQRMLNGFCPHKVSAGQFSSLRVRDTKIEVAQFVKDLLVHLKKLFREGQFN
Procedure: as §1, §2

T1 sequence (P35225 other isoform, or with tags, fused parts or gaps limits assumed): as the sequence (Q0PW92 entry or part of it) above, with S1G, K10R, V42M, N67S, R83H, V100L, Q110R counted along it

B1: BPC1086 (bispecific antibody, human IgG1, kappa)
heavy: not shown
light: DIVMTQSPLSLPVTPGEPASISCRSSQNIVHINGNTYLEWYLQKPGQSPRLLIYKISDRFSGVPDRFSGSGSGTDFTLKISRVEADDVGIYYCFQGSHVPWTFGQGTKLEIKRTVAAPSVFIFPPSDEQLKSGTASVVCLLNNFYPREAKVQWKVDNALQSGNSQESVTEQDSKDSTYSLSSTLTLSKADYEKHKVYACEVTHQGLSSPVTKSFNRGEC
Mean ND50, TF-1 cell proliferation bioassay [1]: 1.01 nM

B2: A1L1 (antibody, human IgG1, kappa, V domains shown)
VH: QVQLVQSGAEVKKPGSSVKVSCKASGFYIKDTYMHWVRQAPGQGLEWMGTIDPANGNTKYVPKFQGRVTITADESTSTAYMELSSLRSEDTAVYYCARSIYDDYHYDDYYAMDYWGQGTLVTVSS
VL: DIVMTQSPLSLPVTPGEPASISCRSSQNIVHINGNTYLEWYLQKPGQSPRLLIYKISDRFSGVPDRFSGSGSGTDFTLKISRVEADDVGIYYCFQGSHVPWTFGQGTKLEIKR
ND50 human IL-13, TF-1 cell proliferation bioassay [2]: 2.52 nM | Mean ND50, TF-1 cell proliferation bioassay [1]: 5.01 nM

B3: BPC1093 (bispecific antibody, human IgG1, kappa)
heavy: not shown
light: B1 light
notes: also called 829H-(TVAAPS)2GS-154 (89M)
Kd [3]: 0.055 nM | koff [3]: 0.000211 s⁻¹ | kon [3]: 3.84e+06 M⁻¹ s⁻¹

B4: BPC1112 (bispecific antibody, human IgG1, kappa)
heavy: not shown
light: B1 light
notes: also called 829H-(TVAAPS)2GS-154 (89K)
kon [4]: 1.14e+08 M⁻¹ s⁻¹

B5: BPC3214 (bispecific antibody, human IgG1, kappa)
heavy: not shown
light: DIQMTQSPSSLSASVGDRVTITCRSSQNIVHINGNTYLEWYQQKPGKAPKLLIYKISDRFSGVPSRFSGSGSGTDFTLTISSLQPEDFATYYCFQGSHVPWTFGQGTKLEIKRTVAAPSVFIFPPSDEQLKSGTASVVCLLNNFYPREAKVQWKVDNALQSGNSQESVTEQDSKDSTYSLSSTLTLSKADYEKHKVYACEVTHQGLSSPVTKSFNRGEC
Kd [5]: 0.0158 nM | koff [5]: 5.07e-06 s⁻¹
